Target: human IgG1 (solid phase in surface plasmon resonance) (human)
Assay: SPR

Kd: 500 µM
Substance: soluble recombinant FcγRIIa-HR (high-responder, arginine R134 allele of FcγRIIa), glycosylated (from UniProt P12318 37-206) (receptor)
